Reference: US20230416400A1 (published 2023)
No end group written: not given here.

T1: BRAF V600E peptide (biotinylated synthetic peptide including the amino acids of and surrounding the BRAF … (also: biotinylated (position not given here)))
T1 peptide: GLATEKSRWSG

B1: chimeric BRAF V600E antibody (mouse variable domains, rabbit IgG heavy chain and rabbit kappa1 light chain constant domains; heavy chain SEQ ID NO:2 and light … (antibody, V domains shown)
VH: QAYLQQSGAELVRPGASVKMSCKASGYTFTSYNMHWIKQTPRQGLEWIGAIYPGNGDTSYNQKFKGKATLTVDRSSNTAYMQLSSLTSEDSAVYFCARDGISPWGQGTLVTVSS
VL: DIKMTQSPSSMYASLGERVTITCKASQDINRYLSWFQQKPGKSPKTLIYRANRVLDGVPSRFSGSGSGQDYSLTISSLESEDMGIYYCLHYDEYPYTYGGGTKLEIKG
B2: recombinant mouse anti-human BRAF V600E antibody (mouse IgG2a heavy chain, mouse kappa1 light chain) (antibody, V domains shown)
VH: B1 VH
VL: DIKMTQSPSSMYASLGERVTITCKASQDINRYLSWFQQKPGKSPKTLIYRANRVLDGVPSRFSGSGSGQDYSLTISSLESEDMGIYYCLHYDEYPYTYGGGTKLEIK

Key:
[1] = biological target: T1, BRAF V600E peptide (biotinylated …); experiment: BLI
[2] = biological target: BRAF in colorectal cancer specimens with V600E mutation status: negative (human) (UniProt P15056); experiment: IHC, FLEX++ Dako OMNIS, CRC block 7 BRAF-, V600E mutation status negative
[3] = biological target: BRAF in colorectal cancer specimens with V600E mutation status: negative (human) (UniProt P15056); experiment: IHC, FLEX++ Dako OMNIS, CRC block 9 BRAF-, V600E mutation status negative
[4] = biological target: BRAF in colorectal cancer specimens with V600E mutation status: negative (human) (UniProt P15056); experiment: IHC, FLEX++ Dako OMNIS, CRC block 6 BRAF-, V600E mutation status negative
[5] = biological target: BRAF in colorectal cancer specimens with V600E mutation status: negative (human) (UniProt P15056); experiment: IHC, FLEX++ Dako OMNIS, CRC block BRAF- (slide 51), V600E mutation status negative; set-up: scale not given here
[6] = biological target: BRAF in colorectal cancer specimens with V600E mutation status: negative (human) (UniProt P15056); experiment: IHC, FLEX++ Dako OMNIS, CRC block 10 BRAF-, V600E mutation status negative (clinical status Equivocal/Negative)
[7] = biological target: BRAF in colorectal cancer specimens with V600E mutation status: negative (human) (UniProt P15056); experiment: IHC, FLEX++ Dako OMNIS, CRC block BRAF- (slide 52), V600E mutation status negative
[8] = biological target: BRAF in colorectal cancer specimens with V600E mutation status: negative (human) (UniProt P15056); experiment: IHC, FLEX++ Dako OMNIS, CRC block 8 BRAF-, V600E mutation status negative

Binder | Kd [1] | Tumor cells staining intensity [2] | Tumor cells staining intensity [3] | Tumor cells staining intensity [4] | Tumor cells staining intensity [5] | Tumor cells staining intensity [6] | Tumor cells staining intensity [7] | Tumor cells staining intensity [8]
B1 | 5.05 pM | 0.125 | 0.125 | 0.125 | 0.125 | 0.25 | 0.125 | 0
B2 | 4.86 pM |  |  |  |  |  |  | 
